Reference: patent publication US20250382381A1 (CORNELL UNIVERSITY, published 2025)

T1: purified recombinant human ART1 (human, UniProt P52961 23-295)
T1 construct: Produced in HEK293 cells and purified; also called huART1; human ADP-ribosyltransferase 1
T1 sequence: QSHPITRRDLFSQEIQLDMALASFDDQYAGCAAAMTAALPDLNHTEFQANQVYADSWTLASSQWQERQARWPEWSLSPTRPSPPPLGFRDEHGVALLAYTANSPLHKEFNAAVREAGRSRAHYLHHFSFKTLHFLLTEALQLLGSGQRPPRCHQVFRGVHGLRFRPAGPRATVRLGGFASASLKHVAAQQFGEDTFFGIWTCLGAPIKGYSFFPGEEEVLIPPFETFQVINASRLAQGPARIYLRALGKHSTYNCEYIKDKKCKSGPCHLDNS

T2: human ART1 expressed on HEK293 cells (human, UniProt P52961 23-295)
T2 sequence: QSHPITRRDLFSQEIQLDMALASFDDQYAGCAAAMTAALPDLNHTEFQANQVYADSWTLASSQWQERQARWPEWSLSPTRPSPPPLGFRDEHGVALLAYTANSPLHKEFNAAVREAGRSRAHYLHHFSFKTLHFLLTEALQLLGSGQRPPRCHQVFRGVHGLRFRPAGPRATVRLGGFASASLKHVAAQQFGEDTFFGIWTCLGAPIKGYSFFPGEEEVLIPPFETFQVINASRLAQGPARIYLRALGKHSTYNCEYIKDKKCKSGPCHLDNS

T3: purified recombinant mouse ART1 (mouse, UniProt Q60935 23-290)
T3 construct: Produced in HEK293 cells and purified; also called moART1; murine ART1
T3 sequence: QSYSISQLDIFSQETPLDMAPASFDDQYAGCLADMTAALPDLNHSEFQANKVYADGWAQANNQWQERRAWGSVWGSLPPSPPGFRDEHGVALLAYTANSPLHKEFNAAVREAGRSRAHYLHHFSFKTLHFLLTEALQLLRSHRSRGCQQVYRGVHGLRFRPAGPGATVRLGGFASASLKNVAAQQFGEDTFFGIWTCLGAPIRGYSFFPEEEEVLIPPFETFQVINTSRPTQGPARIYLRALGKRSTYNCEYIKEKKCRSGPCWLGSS


Legend:
[1] = target: T1, purified recombinant human ART1; experiment: sensorgrams R [RU] against time [s] with fitted lines, panel '14G01 Binding huART1', huART1 at 100.0, 25.00, 12.50, 6.250, 3.125, 1.563 nM; format not told for this figure (FIG. 12 legend: SPR, antibody captured on anti-mouse Fc, 1:1 fit)
[2] = target: T2, human ART1 expressed on HEK293 cells; experiment: cell-based or functional assay
[3] = target: T3, purified recombinant mouse ART1; experiment: SPR; antibody captured on anti-mouse Fc surface, ART1 as analyte, 1:1 kinetic fit
Description: (§1) FIGS. 12A-12D. […] Sensorgrams are double-reference subtracted using a control surface and blank injections. Affinity constants were determined by kinetic fit using a 1:1 binding model.

[4] = target: T1, purified recombinant human ART1; experiment: as above
Description: as §1

[5] = target: T3, purified recombinant mouse ART1; experiment: sensorgrams R [RU] against time [s] with fitted lines, panel '14G01 Binding moART1', moART1 at 200.0, 100.0, 25.00, 12.50, 3.125, 1.563 nM; format not told for this figure (FIG. 12 legend: SPR, antibody captured on anti-mouse Fc, 1:1 fit)
[6] = target: T2, human ART1 expressed on HEK293 cells; experiment: panel 'ART1 Ab binding' on HEK293 cells transfected with ART1; y axis GMFI, Ratio to 2nd Only, x axis Log[Ab], nM (the legend calls it a NAD-Glo assay); the curve rises from about 3.3 to a plateau of about 13

| Binder | Kd [1] [nM] | IC50 Cell Surface ADP-Ribosylation [2] [nM] | Kd [3] [nM] | Kd [4] [nM] | Kd [5] [nM] | EC50 [6] [nM] |
| --- | --- | --- | --- | --- | --- | --- |
| 14G01 monoclonal antibody (antibody, V domains shown, Purified from hybridoma supernatant; VH and VK are human; The antibody was captured on an anti-mouse Fc surface in SPR) VH: QVQLQESGPGLVKPSETLSLTCTVSGGSISSYYWSWIRQPAGKGLEWIGRISTSGFTNYNPSLKSRVTMSVDSSKNQFSLKLSSLTAADTAVYYCARDGWGRVFDIWGLGTMVTVSS VL: not shown | 3.8 | 28 | 6 | 4 | 6.2 | – |
| 22C12 monoclonal antibody (parental, mouse light chain) (antibody, V domains shown, Purified from hybridoma supernatant (AlivaMab Mouse); VH is human and VK is mouse; The antibody was captured on an anti-mouse Fc surface in SPR; also called 22C12 (mLC); mLC22C12) VH: QVTLKESGPVLVKPTETLTLTCTVSGFSLSNARMGVSWIRQPPGKALEWLAHIFSNDEKSYSTSLKSRLTISKDTSKSQVVLTMTNMDPVDTATYYCARIYGGDSWGYFDNWGQGTLVTVSS VL: QIVLTQSPAIMSASLGEKVTMTCSASSSVSYMHWYQQKSGTSPKRWIYDTSKLASGVPARFSGSGSGTSYSLTISSMEAGDAATYYCQQWSSNPPTFGAGTKLELK | – | 14 | 0.439 | 0.161 | – | 0.75 |
